From patent US11306156 come the findings set out here.

The target in assay [1] is D3H44 Fab heavy chain L143E_K145T_S188L. The assay can be described thus: LCCA, L1:L2 DNA 1:3 normalised to 1:1, SPR of light chain tags; competitor m33.
For assay [2], the target named is D3H44 Fab heavy chain L143R. The description is as above.
The target of assay [3] is D3H44 Fab heavy chain L143E_K145T_S188L, C-terminal ABD2-His6 tag. The experiment in a line: LCCA: heavy chain co-expressed with two light chains, SPR detection of light chain tags; L1:L2 DNA 1:3, normalized to 1:1; competing light chain m11.
Assay [4] concerns the target D3H44 Fab heavy chain S186K, C-terminal ABD2-His6 tag. The assay is described as above.
The target in assay [5] is D3H44 Fab heavy chain Q179R, C-terminal ABD2-His6 tag. The description is as above.
For assay [6], the target named is D3H44 Fab heavy chain S186R, C-terminal ABD2-His6 tag. The experiment in a line: LCCA: heavy chain co-expressed with two light chains, SPR detection of light chain tags; L1:L2 DNA 1:3, normalized to 1:1; competing light chain m20.
Assay [7] has as its target D3H44 Fab heavy chain L143E_K145T_Q179E_S188L, C-terminal ABD2-His6 tag. The assay is described as above.
The target of assay [8] is D3H44 Fab heavy chain L143E_K145T_S188L, C-terminal ABD2-His6 tag. The experiment in a line: LCCA: heavy chain co-expressed with two light chains, SPR detection of light chain tags; L1:L2 DNA 1:9, normalized to 1:1; competing light chain m11.
Assay [9] has as its target D3H44 Fab heavy chain S186K, C-terminal ABD2-His6 tag. The description is as above.
Assay [10] has as its target D3H44 Fab heavy chain L143E_K145T. The experiment in a line: LCCA, L1:L2 DNA 1:3 normalised to 1:1, SPR of light chain tags; competitor m34.
Assay [11] has as its target D3H44 Fab heavy chain L143K_D146G. Described as above.
For assay [12], the target named is D3H44 Fab heavy chain L143E_K145T, C-terminal ABD2-His6 tag. The assay can be described thus: LCCA: heavy chain co-expressed with two light chains, SPR detection of light chain tags; L1:L2 DNA 1:3, normalized to 1:1; competing light chain m19.
For assay [13], the target named is D3H44 Fab heavy chain L143R, C-terminal ABD2-His6 tag. The assay is described as above.
Assay [14] shares this target. The experiment in a line: LCCA: heavy chain co-expressed with two light chains, SPR detection of light chain tags; L1:L2 DNA 1:3, normalized to 1:1; competing light chain m17.
Assay [15] addresses D3H44 Fab heavy chain L143E_K145T_S188L, C-terminal ABD2-His6 tag. Described as above.
In assay [16] the target is D3H44 Fab heavy chain Q179K, C-terminal ABD2-His6 tag. The experiment in a line: LCCA: heavy chain co-expressed with two light chains, SPR detection of light chain tags; L1:L2 DNA 1:3, normalized to 1:1; competing light chain m14.
Assay [17] concerns the target D3H44 Fab heavy chain L143E_K145T_S188L, C-terminal ABD2-His6 tag. The description is as above.
Assay [18] addresses D3H44 Fab heavy chain S186K, C-terminal ABD2-His6 tag. Described as above.
The target of assay [19] is D3H44 Fab heavy chain L143R, C-terminal ABD2-His6 tag. The assay can be described thus: LCCA: heavy chain co-expressed with two light chains, SPR detection of light chain tags; L1:L2 DNA 1:9, normalized to 1:1; competing light chain m17.
Assay [20] concerns the target D3H44 Fab heavy chain L143E_K145T_S188L, C-terminal ABD2-His6 tag. The description is as above.
For assay [21], the target named is D3H44 Fab heavy chain L143E_K145T, C-terminal ABD2-His6 tag. The assay can be described thus: LCCA: heavy chain co-expressed with two light chains, SPR detection of light chain tags; L1:L2 DNA 1:3, normalized to 1:1; competing light chain m15.
In assay [22] the target is D3H44 Fab heavy chain Q179K, C-terminal ABD2-His6 tag. Described as above.
For assay [23], the target named is D3H44 Fab heavy chain L143E_K145T_S188L, C-terminal ABD2-His6 tag. The assay can be described thus: LCCA: heavy chain co-expressed with two light chains, SPR detection of light chain tags; L1:L2 DNA 1:3, normalized to 1:1; competing light chain m12.
Assay [24] deals with D3H44 Fab heavy chain S186K, C-terminal ABD2-His6 tag. Described as above.
In assay [25] the target is D3H44 Fab heavy chain Q179R, C-terminal ABD2-His6 tag. The description is as above.
For assay [26], the target named is D3H44 Fab heavy chain L143E_K145T_S188L, C-terminal ABD2-His6 tag. The assay can be described thus: LCCA: heavy chain co-expressed with two light chains, SPR detection of light chain tags; L1:L2 DNA 1:9, normalized to 1:1; competing light chain m12.
Assay [27] has as its target D3H44 Fab heavy chain S186K, C-terminal ABD2-His6 tag. The description is as above.
Assay [28] concerns the target D3H44 Fab heavy chain Q179K, C-terminal ABD2-His6 tag. The experiment in a line: LCCA: heavy chain co-expressed with two light chains, SPR detection of light chain tags; L1:L2 DNA 1:3, normalized to 1:1; competing light chain m16.
The target in assay [29] is D3H44 Fab heavy chain L143E_K145T_S188L, C-terminal ABD2-His6 tag. The assay is described as above.
The target in assay [30] is D3H44 Fab heavy chain L143E_K145T, C-terminal ABD2-His6 tag. The experiment in a line: LCCA: heavy chain co-expressed with two light chains, SPR detection of light chain tags; L1:L2 DNA 1:3, normalized to 1:1; competing light chain m13.
Assay [31] shares this target. The assay can be described thus: LCCA: heavy chain co-expressed with two light chains, SPR detection of light chain tags; L1:L2 DNA 1:9, normalized to 1:1; competing light chain m13.
Assay [32] deals with D3H44 Fab heavy chain S186K, C-terminal ABD2-His6 tag. The assay is described as above.
Assay [33] concerns the target D3H44 Fab heavy chain L143E_K145T. The assay can be described thus: LCCA, L1:L2 DNA 1:3 normalised to 1:1, SPR of light chain tags; competitor m32.
The target in assay [34] is D3H44 Fab heavy chain L143E_K145T_S188L. The assay can be described thus: LCCA, L1:L2 DNA 1:3 normalised to 1:1, SPR of light chain tags; competitor m37.
In assay [35] the target is D3H44 Fab heavy chain Q179R. The assay can be described thus: LCCA, L1:L2 DNA 1:3 normalised to 1:1, SPR of light chain tags; competitor m31.
Assay [36] concerns the target D3H44 Fab heavy chain L143E_K145T. Described as above.
The target of assay [37] is D3H44 Fab heavy chain S186R. Described as above.
In assay [38] the target is D3H44 Fab heavy chain Q179K. The assay is described as above.
The target in assay [39] is D3H44 Fab heavy chain L143E_K145T. The experiment in a line: LCCA, L1:L2 DNA 1:3 normalised to 1:1, SPR of light chain tags; competitor m33.
Assay [40] has as its target D3H44 Fab heavy chain S186R. Described as above.
Assay [41] has as its target D3H44 Fab heavy chain S186R, C-terminal ABD2-His6 tag. The experiment in a line: LCCA: heavy chain co-expressed with two light chains, SPR detection of light chain tags; L1:L2 DNA 1:3, normalized to 1:1; competing light chain m12.
Assay [42] has as its target D3H44 Fab heavy chain L143E_K145T_Q179E_S188L, C-terminal ABD2-His6 tag. Described as above.

Several values for one entry are separate records, joined by “and”; a condition that tells them apart may be missing. Identical values can stand only once.

For D3H44 light chain Q124E_V133E, the H1L1:H1L2 normalized median ratio in [1] worked out at 49%. Besides, in assay [2], the H2L2:H2L1 normalized median ratio came to 96%.
Take “D3H44 light chain Q124E_S131T_T178Y_T180E, N-terminal HA or FLAG tag”: the H1L1:H1L2 normalized median ratio in [3] is 26%; in [7] it was 17%; in [8] it was 16%. Besides, the H2L2:H2L1 normalized median ratio in [4] was found to be 94%; in assay [5], 95%; in assay [6], 88%; in assay [9], 89%.
Consider D3H44 light chain Q124E_V133D, for which the H1L1:H1L2 normalized median ratio in assay [10] worked out at 33%. Moreover, the H2L2:H2L1 normalized median ratio in assay [11] stood at 91%.
For the substance “D3H44 light chain Q124R, N-terminal HA or FLAG tag”, in assay [12], the H1L1:H1L2 normalized median ratio stood at 85% and the H1L1:H1L2 normalized median scalar value ln(r1/f1) worked out at 1.77. The H2L2:H2L1 normalized median ratio in assay [13] stood at 12%.
Consider “D3H44 light chain Q124R_Q160K_T178R, N-terminal HA or FLAG tag”, for which the H2L2:H2L1 normalized median ratio is 6% in assay [14]; 3% in [16]; 3% in [18]; 21% in [19]; 2% in assay [22]; 6% in [24]. The H2L2:H2L1 normalized median ratio is 5% in assay [25], 11% in assay [27], 3% in assay [28] and 10% in assay [32]. The H1L1:H1L2 normalized median ratio in [15] was found to be 74%; in assay [17] it was 57%; in assay [20] it was 86%; in assay [21], 47%; in assay [23] it was 74%; in [26] it was 84%. Besides, the H1L1:H1L2 normalized median ratio in [29] came to 59%; in assay [30], 82%; in [31], 81%. Further, the H1L1:H1L2 normalized median scalar value ln(r1/f1) was 1.04 in assay [15]; 0.28 and 0.23 in [17]; 1.79 in [20]; -0.14 in [21]; 1.03 in assay [23]; 1.65 in assay [26]. Also, the values for the H1L1:H1L2 normalized median scalar value ln(r1/f1) in assay [29], in assay [30] and in [31] were 0.37, 1.77 and 1.44, respectively.
Regarding D3H44 light chain Q124R_Q160K_T178R, the values for the H1L1:H1L2 normalized median scalar value ln(r1/f1) in [33] and in assay [34] were -0.14 and 0.03, respectively.
Take D3H44 light chain S131E: the H2L2:H2L1 normalized median ratio in assay [35] worked out at 97%; in assay [37], 95%; in assay [38] it was 97%; in [40], 96%. The results for the H1L1:H1L2 normalized median ratio in [36] and in [39] were 54% and 53%, respectively.
“D3H44 light chain Q124R_T178R, N-terminal HA or FLAG tag”: the H2L2:H2L1 normalized median ratio in assay [41] stood at 12%. In [42], the H1L1:H1L2 normalized median ratio was determined as 83% and the H1L1:H1L2 normalized median scalar value ln(r1/f1) is 1.62.
